Consider nine molecules from US20260216242A1 (ALMAC DISCOVERY, published 2026).

Changes are numbered by the printed parent chain.

Sequences and labels used below:
T1: human ALPI on CHO cells (human, UniProt P09923 20-503)
T1 construct: whole, on cells; also called CHO-ALPI
T1 sequence (looked up): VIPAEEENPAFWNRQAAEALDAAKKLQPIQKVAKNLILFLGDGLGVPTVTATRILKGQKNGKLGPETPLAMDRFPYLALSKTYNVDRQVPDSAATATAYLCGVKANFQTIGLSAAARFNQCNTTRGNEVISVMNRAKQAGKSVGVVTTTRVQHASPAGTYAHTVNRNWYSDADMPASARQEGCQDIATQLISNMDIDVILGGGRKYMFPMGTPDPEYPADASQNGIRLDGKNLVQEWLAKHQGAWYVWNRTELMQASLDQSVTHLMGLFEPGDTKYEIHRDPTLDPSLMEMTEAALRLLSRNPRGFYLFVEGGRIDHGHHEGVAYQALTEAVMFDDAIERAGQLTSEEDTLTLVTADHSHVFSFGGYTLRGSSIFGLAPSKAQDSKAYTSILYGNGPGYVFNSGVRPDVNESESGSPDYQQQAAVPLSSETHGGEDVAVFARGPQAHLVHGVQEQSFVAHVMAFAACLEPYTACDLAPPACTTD

T2: human ALPL on CHO cells (human, UniProt P05186 18-501)
T2 construct: whole, on cells; also called CHO-ALPL
T2 sequence (looked up): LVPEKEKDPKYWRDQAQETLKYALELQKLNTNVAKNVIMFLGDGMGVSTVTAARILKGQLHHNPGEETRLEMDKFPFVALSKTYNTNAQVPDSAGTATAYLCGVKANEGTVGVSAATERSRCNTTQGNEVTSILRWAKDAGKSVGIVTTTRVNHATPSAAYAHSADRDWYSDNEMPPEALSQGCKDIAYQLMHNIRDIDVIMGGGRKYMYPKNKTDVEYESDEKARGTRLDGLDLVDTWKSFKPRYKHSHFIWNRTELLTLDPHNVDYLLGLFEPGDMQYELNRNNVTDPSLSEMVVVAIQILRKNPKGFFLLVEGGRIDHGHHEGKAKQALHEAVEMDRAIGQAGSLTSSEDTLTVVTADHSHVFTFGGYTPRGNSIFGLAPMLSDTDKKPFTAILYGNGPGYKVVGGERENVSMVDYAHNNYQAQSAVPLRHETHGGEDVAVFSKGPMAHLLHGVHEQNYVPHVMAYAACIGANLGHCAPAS

T3: ALPI His homodimer (human, UniProt P09923 20-503)
T3 construct: Whole entry with His tag; used in ELISA and BLI; also called hALPI
T3 sequence: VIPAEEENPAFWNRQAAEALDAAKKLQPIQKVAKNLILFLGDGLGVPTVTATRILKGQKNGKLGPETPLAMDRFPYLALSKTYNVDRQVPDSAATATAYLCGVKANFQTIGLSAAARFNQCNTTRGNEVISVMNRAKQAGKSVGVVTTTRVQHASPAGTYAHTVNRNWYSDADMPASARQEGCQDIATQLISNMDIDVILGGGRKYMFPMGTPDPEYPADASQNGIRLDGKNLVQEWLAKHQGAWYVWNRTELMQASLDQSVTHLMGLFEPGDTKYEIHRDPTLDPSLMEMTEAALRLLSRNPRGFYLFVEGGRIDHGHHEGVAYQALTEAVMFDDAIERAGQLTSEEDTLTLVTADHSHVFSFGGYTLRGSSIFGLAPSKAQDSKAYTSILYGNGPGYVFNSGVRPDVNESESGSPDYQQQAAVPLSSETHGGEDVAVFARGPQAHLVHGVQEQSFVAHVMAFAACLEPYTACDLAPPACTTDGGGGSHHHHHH

B1: C07 His (VHH, not shown: small tags and cut ends)
VHH: QVQLVESGGGLVQAGESLRLACAASGTIFSGNAVGWYRQAPEKQREWVSSITDYGDTDYAEAVKGRFTISRDNAKNTVYLQMNSLKPEDTAVYYCYVYQRGESEEYWGQGTQVTVSS
notes: also called #258
B2: E10 His (VHH, not shown: small tags and cut ends)
VHH: QVQLVESGGGLVQAGGSLRLSCAVSGRALSDYNIGWFRQAPGKEREFVARKTWDGSSTRYDDSVKGRFTVSIEDAKNTAYLQMSSLKTEDTAVYYCAAGRYSRARGWEYDYWGQGTQVTVSS
notes: also called #265
B3: F05 His (VHH, not shown: small tags and cut ends)
VHH: B2 VHH with V24A, L29F, S30G, K51R, E73D, D74N, S84N, A104V
B4: D10 His (VHH, not shown: small tags and cut ends)
VHH: QVQLVESGGGLVQPGGSLRLSCAASGSIFSVNTMGWYRQAPGKQRDLVAVATSGGTIHYADSVKGRFTISRDNAKNTVYLQMNSLKPEDTAVYYCNLVVPYGMIAGDHDYWGQGTKVTVSS
B5: A06 His (VHH, not shown: small tags and cut ends)
VHH: QVHLVESGGGLVQAGGSLRLSCAASGRTFLSMGWFRQAPGKEREFVAAISWTGGSTGYADSVKGRFTISRESDKETMYLQMNSLKPEDTAVYYCAARGDVYYGGDDATRYKYWGQGTQVTVSS
notes: also called #250
B6: E06 His (VHH, not shown: small tags and cut ends)
VHH: QVHLVESGGGLVQAGGSLRLSCAASRRSFSEYAMGWFRQAPGKEREFVAAIGWSGVIEYADSVKGRFTISRDNAKDTVYLQMNSLKPEDTAVYYCAAGLGIRVVSQTPAYWGQGTQVTVSS
B7: A05 His (VHH, not shown: small tags and cut ends)
VHH: QVQLVESGGGLVQAGASLTLSCAASGFTFNTRSIVWFRQAPGKEREAVSCISKVAGSTYYGDSVQGRFSSSTDNAKNTVSLQMNSLKPEDTAVYTCAASFAPNCYGWSVAANMEYWGEGTMVTVSS
notes: also called #249
B8: D04 His (VHH, not shown: small tags and cut ends)
VHH: QVQLVESGGGLVQPGGSLRLSCAASESTFSINVMGWYRQAPGKQRELVATITSGDITNYADSVKGRFTISRDNAENTVYLRTNSLKPEDTAVYYCNARGEYHSGNEYDYWGQGTQVTVSS
B9: F08 His (VHH, not shown: small tags and cut ends)
VHH: QVQLVESGGGSVQAGGSLRLSCAASGPSLSNYAMGWFRQAPGKEREFVAGISWGGGRTSYTDSVKGRFTISRDNAKNTVYLQMNNLKPEDTGVYYCAGRYGRGRNVEYEYDYWGQGTQVTVSS
notes: also called #269

T4 sequence (P10696 20-503): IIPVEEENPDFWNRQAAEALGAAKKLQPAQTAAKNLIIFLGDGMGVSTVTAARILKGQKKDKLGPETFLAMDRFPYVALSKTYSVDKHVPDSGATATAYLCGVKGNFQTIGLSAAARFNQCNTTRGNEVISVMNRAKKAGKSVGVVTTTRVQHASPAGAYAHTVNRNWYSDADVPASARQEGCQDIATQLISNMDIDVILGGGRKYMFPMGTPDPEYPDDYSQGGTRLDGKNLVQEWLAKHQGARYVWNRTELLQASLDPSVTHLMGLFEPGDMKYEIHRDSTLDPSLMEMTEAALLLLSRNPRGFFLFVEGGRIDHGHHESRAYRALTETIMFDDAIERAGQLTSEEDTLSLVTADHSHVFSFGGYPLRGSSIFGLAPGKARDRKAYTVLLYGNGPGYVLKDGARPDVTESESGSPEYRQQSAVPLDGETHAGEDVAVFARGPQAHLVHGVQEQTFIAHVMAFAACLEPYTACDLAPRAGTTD
T5 sequence (P05187 23-506): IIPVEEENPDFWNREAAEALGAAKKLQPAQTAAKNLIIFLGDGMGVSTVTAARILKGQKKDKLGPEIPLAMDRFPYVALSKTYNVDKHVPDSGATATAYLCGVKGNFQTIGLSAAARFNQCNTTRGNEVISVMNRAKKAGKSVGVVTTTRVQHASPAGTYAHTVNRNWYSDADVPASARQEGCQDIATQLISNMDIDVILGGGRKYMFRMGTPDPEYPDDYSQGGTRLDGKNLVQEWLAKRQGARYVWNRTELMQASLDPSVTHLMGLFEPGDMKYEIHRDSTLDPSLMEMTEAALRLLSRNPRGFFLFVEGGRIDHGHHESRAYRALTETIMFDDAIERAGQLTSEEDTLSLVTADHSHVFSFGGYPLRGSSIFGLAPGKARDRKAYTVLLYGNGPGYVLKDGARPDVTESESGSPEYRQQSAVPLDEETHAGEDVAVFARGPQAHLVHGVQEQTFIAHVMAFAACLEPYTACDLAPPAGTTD

The first assay deals with T1, human ALPI on CHO cells. Kind of assay: flow cytometry, CHO cells stably expressing human ALPI; His6-tagged VHH detected with anti-His tag Ab and FITC anti-mouse Ab. The method, then:
(§1) C-terminal His tagged VHH proteins were assessed for ALPP, ALPPL2, ALPI and ALPL cell-surface binding by flow cytometry. Binders encompassing different epitope bins were screened on CHO cells stably expressing ALPP, ALPPL2, ALPI or ALPL. High levels of cell-surface proteins expression were confirmed for each of the cell-lines by flow cytometry.
(§2) Cell surface binding of test agents to hALPP isoforms was characterized in four CHO-ALPP isoform stably transfected cell lines (CHO-ALPP, CHO-ALPPL2, CHO-ALPI and CHO-ALPL) and the resulting KDapp values determined. Adherent cells were detached from tissue culture flasks by incubating with 0.1% EDTA/PBS solution at 37° C. for ~10 minutes or until cells detached easily. Cells were re-suspended in ice-cold PBS/2% FCS in 15 ml tubes and centrifuged at 1700 rpm for 5 mins at 4° C. Supernatant was removed and the cell pellet re-suspended in PBS/2% FCS. […] Cells were incubated with 100 μl of test agents at a range of concentrations, plus controls for 1 hr on ice. The sample plate was centrifuged at 1700 rpm for 5 mins at 4° C. The supernatant was removed, and a wash performed by re-suspending the cell pellets in 0.25 mL of ice-cold PBS/2% FCS using a multichannel pipette. Samples were again centrifuged at 1700 rpm for 5 min at 4° C. Supernatant was removed and two further washes performed as described. After the final wash and centrifugation step, excess liquid was removed by blotting the plate on tissue paper. Binding of VHH (His6 tagged) agents was determined by adding 100 μl of anti-x6His tag Ab (Abcam) per cell pellet sample as appropriate and incubating on ice for 30 mins. Wash steps were performed as described previously. Fitc-anti-mouse antibody (ThermoFisher) was used to detect binding of the VHH (His6 tagged) agents by incubating with the appropriate samples for 30 min on ice in the dark. Wash steps were performed as described previously. All cell pellets were finally re-suspended in […] of ice-cold PBS/2% FCS and left on ice in the dark prior to analysis on a Merck-Millipore Guava EasyCyte HT or Thermo Fisher Attune N×T flow cytometer.
On the technique in general: Flow cytometry measures light scatter and fluorescence of single cells or particles in a stream.
Consider B1, for which the binding result was “no binding (tested: 350 nM)”.

Take B2: the binding result is listed as “no binding (tested: 350 nM)”.

B3: the binding result was “no binding (tested: 350 nM)”.

As to B4, the binding result is “no binding (tested: 350 nM)”.

In the case of B5, the binding result was “no binding (tested: 350 nM)”.

Turning to B6, the binding result is reported as “no binding (tested: 350 nM)”.

With B7, the binding result is “no binding (tested: 350 nM)”.

Another assay addresses T4, human ALPPL2 on CHO cells (human, UniProt P10696 20-503).
T4 construct: whole, on cells; also called CHO-ALPPL2
Kind of assay: flow cytometry, CHO cells, KDapp. The method, then: as §2
For the molecule B1, the Kd came out at 5.1 nM.

Regarding B2, the Kd came out at 3.8 nM.

As for B3, the Kd is 1.8 nM.

Molecule B8 displayed a Kd of 19.5 nM.

In turn, B5 came in with a Kd of 28.3 nM.

With B6, the Kd worked out at 4.9 nM.

As to B9, the Kd was determined as 3.3 nM.

In turn, B7 came in with a Kd of 6 nM.

A further assay has as its target T5, human ALPP on CHO cells (human, UniProt P05187 23-506).
T5 construct: whole, on cells; also called CHO-ALPP
Kind of assay: flow cytometry, CHO cells, KDapp. Here is the method:
as §2
B1 returned a Kd of 3.5 nM.

For B2, the Kd was 3.5 nM.

B3 registered a Kd of 2.3 nM.

Molecule B8 gave a Kd of 4.2 nM.

B4: the Kd is 3.4 nM.

B5: the Kd was 42.4 nM.

Turning to B6, the Kd was found to be 4.6 nM.

Regarding B9, the Kd turned out to be 5 nM.

Regarding B7, the Kd stood at 3.8 nM.

In another assay the target is T2, human ALPL on CHO cells. Kind of assay: flow cytometry, CHO cells stably expressing human ALPL; His6-tagged VHH detected with anti-His tag Ab and FITC anti-mouse Ab. The method, then: as §1, §2
For the molecule B1, the binding result was “no binding (tested: 350 nM)”.

Turning to B2, the binding result is given as “no binding (tested: 350 nM)”.

With B3, the binding result is “no binding (tested: 350 nM)”.

Consider B8, for which the binding result is “no binding (tested: 350 nM)”.

B4: the binding result was “no binding (tested: 350 nM)”.

B5: the binding result is reported as “no binding (tested: 350 nM)”.

As to B6, the binding result is given as “no binding (tested: 350 nM)”.

For the molecule B9, the binding result is given as “no binding (tested: 350 nM)”.

In the case of B7, the binding result is “no binding (tested: 350 nM)”.

A further assay deals with T1, human ALPI on CHO cells. Kind of assay: flow cytometry, CHO cells, 350 nM. The method, then: as §2
In turn, B8 gave an MFI of 629 MFI.

Consider B9, for which the MFI was found to be 99 MFI and the “fold lower MFI for ALPI binding versus ALPP” value came to 75 fold.

The next assay has as its target T5, human ALPP on CHO cells. Kind of assay: flow cytometry, CHO cells, 350 nM. Here is the method:
as §2
Consider B8, for which the MFI turned out to be 6650 MFI.

For B9, the MFI came to 7370 MFI.

In a further assay the target is T3, ALPI His homodimer. Kind of assay: ELISA, antigen coated. From the text:
ELISA was used to test the binding and specificity of the VHHs. […] Anti-Llama—HRP antibody was used for detection.
On the technique in general: ELISA stands for enzyme-linked immunosorbent assay.
As for B1, the binding result is recorded as “no binding (tested: 500 ng VHH)”.

For the molecule B2, the binding result is “no binding (tested: 500 ng VHH)”.

With B3, the binding result was “no binding (tested: 500 ng VHH)”.

For the molecule B4, the binding result is given as “no binding (tested: 500 ng VHH)”.

For B5, the binding result is on record as “no binding (tested: 500 ng VHH)”.

Consider B6, for which the binding result is on record as “no binding (tested: 500 ng VHH)”.

On to B7, for which the binding result is on record as “no binding (tested: 500 ng VHH)”.
